What is called stoichiometry N is a count of units in the complex or per binding partner.

Data set [1] has as its target TbMORN1(2–15) (Trypanosoma brucei brucei strain Lister 427). The data set can be described thus: SEC-MALS; Superdex 200 Increase 10/300 GL; 20 mM Tris-HCl pH 8.5, 200 mM NaCl, 2% (w/v) glycerol, 0.5 mM DTT; 100 μl of 2–4 mg/ml protein applied.
Data set [2] deals with TbMORN1(7–15) (Trypanosoma brucei brucei strain Lister 427). Described as above.
For data set [3], the target named is TbMORN1(10–15) (Trypanosoma brucei brucei strain Lister 427). Described as above.
Data set [4] deals with the molecule itself. The data set can be described thus: crystal structure; sitting-drop vapour diffusion at 22°C; TbMORN1(7–15) in forms P21 and C2 and TgMORN1(7–15) in P43212 as extended dimers; PfMORN1(7–15) in C2221 as a V-shaped dimer with Zn2+.

Consider TbMORN1(2–15) (domain or fragment), for which the stoichiometry N in data set [1] stood at 2. With TbMORN1(7–15) (domain or fragment), the stoichiometry N in data set [2] is 2. With TbMORN1(10–15) (domain or fragment), the stoichiometry N in data set [3] is 2.

B1: TgMORN1(7–15) (domain or fragment, Toxoplasma gondii)
chain: EKYEGDWVNGKMHGHGKYIYSDGGVYEGDWIDGKMHGKGTYVFPNGNVYEGEWAHDMKDGYGVLTYQNGEKYEGYWKQDKVHGKGTLTYTRGDKYIGDWMDAKKDGEGELIYANGDRFKGQWADDRANGFGVFTYANGNRYEGEWTDDKRHGRGVFYCAEDGSAYEGEFVGGRKEGNGILRLATGHQLEGTWSGGQLVRVTSFVFAQDSPWLNVDL
notes: TgMORN1, Toxoplasma gondii (1092 bp open reading frame), MORN repeats 7–15; also called Toxoplasma gondii MORN1(7–15); source: E. coli Rosetta 2 (DE3)pLysS, purified; not shown: His10, N-terminal, cleaved
In the case of B1, the binding result in data set [4] is given as “binds”.

(Values after publication PMC7725318, “Structures of three MORN repeat proteins and a re-evaluation of the proposed lipid-binding properties of MORN repeats” (PLoS ONE, 2020).)
